Ends that are not written are not given here. Where only a bound is given, the exact number is not on record here.

Experiment [1] deals with T1, rat P2X4R extracellular peptide (a.a. 301-313, C-RDLAGKEQRTLTK) (rat, not fully specified (N-terminus)).
T1 construct: also called P2X4R peptide; rat P2X4 peptide
T1 peptide: RDLAGKEQRTLTK
Description: indirect ELISA titration on P2X4R peptide; legend box headed 'APPARENT Kd (nM)'. In general terms: An ELISA detects its analyte on a solid surface through an enzyme-linked reagent.

The target in experiment [2] is T2, Hu CCK-B receptor protein (human, UniProt P32239 1-447, limits assumed).
T2 construct: also called human CCK-B receptor
T2 sequence (looked up): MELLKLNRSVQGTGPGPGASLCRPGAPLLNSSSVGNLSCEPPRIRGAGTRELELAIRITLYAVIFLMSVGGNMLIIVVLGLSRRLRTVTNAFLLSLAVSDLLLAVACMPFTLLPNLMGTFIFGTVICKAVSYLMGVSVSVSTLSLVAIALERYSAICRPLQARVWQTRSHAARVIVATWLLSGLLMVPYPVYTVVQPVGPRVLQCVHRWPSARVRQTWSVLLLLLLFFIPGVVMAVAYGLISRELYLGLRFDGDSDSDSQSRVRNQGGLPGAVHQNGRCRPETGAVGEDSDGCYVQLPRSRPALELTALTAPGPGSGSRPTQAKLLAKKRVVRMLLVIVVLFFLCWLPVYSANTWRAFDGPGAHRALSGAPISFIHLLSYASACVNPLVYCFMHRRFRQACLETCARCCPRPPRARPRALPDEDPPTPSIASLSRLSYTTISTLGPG
Description: indirect ELISA on human CCK-B receptor protein, concentration not shown.

For experiment [3], the target named is T1, rat P2X4R extracellular peptide (a.a. …). Description: indirect ELISA of purified scFv on rat P2X4 peptide, concentration not shown.
Experiment [4] has as its target T3, human P2X4 peptide (human, UniProt Q99571 301-313).
T3 construct: range 301-313; The range 301-313 is stated for rat P2X4R, with the human peptide as its 'human form'; also called human Target P2X4R peptide; thirteen amino acid extracellular peptide fragment of human P2X4 receptor
T3 peptide (looked up): RDLAGNEQRTLIK
The experiment can be described thus: indirect ELISA, wells coated with human P2X4 peptide, anti-His detection.

The target of experiment [5] is T3, human P2X4 peptide. Description: indirect ELISA on human P2X4 peptide.
Experiment [6] deals with human and mouse peptide targets. Description: not stated (estimated affinity).

B1: P2X4-scFv103 (scFv)
scFv: MAQVQLKESGAELVRSGASVKLSCTASGFNIKNTYMHWVKQRPEQGLEWIGRIDPASGNTKYAPKFQGKATITADTSSNTAYLQLSSLTSEDTAIYYCARFYDGYYWGQGTTLTVSSAKTTAPSGGGGSGGGGSGGGGSGGGGSAIMSASPGEKVTMTCSASSSVSYMHWYQQKSGTSPKRWIYDTSKLASGVPARFSGSGSGTSYSLTISRMEAEDAATYYCQQYSGYGTFGGGTKLEIKRADAAALEHHHHHH
Take B1: the Kd in experiment [1] was 978 nM.

B2: humanized P2X4R scFv HC1-LC1 (scFv)
scFv: MAEVKLVESGGGLVQPGGSLRLSCATSGFTFTDYYMSWVRQPPGKALEWLGFIRNKANGYTTEYSASVKGRFTISRDNSQSILYLQMNTLRAEDSATYYCARWEGDLLYAMDYWGQGTSVTVSSGGGGSGGGGSGGGGSDIQMTQTTSSLSASLGDRVTISCSASQGISNYLNWYQQKPDGTVKLLIYYTSSLHSGVPSRFSGSGSGTDYSLTISNLEQEDIATYYCQQYSKLPWTFGGGTKLEIKRAAALEHHHHHH
notes: HC-(G4S)3-LC with C-terminal His tag, expressed in E. coli
Regarding B2, the binding result is “no binding” in experiment [2] and “binds” in experiment [3]. In the experiment with human P2X4 peptide [4], this molecule gave a Kd of 24 nM.

B3: humanized P2X4R scFv HC3-LC1 (scFv)
scFv: MAEVQLVESGGGLVQPGGSLRLSCATSGFTFTDYYMHWVRQAPGKGLEWVGFIRNKANGYTTEYSASVKGRFTISRDNSKNTLYLQMNSLRAEDTAVYYCARWEGDLLYAMDYWGQGTLVTVSSGGGGSGGGGSGGGGSDIQMTQTTSSLSASLGDRVTISCSASQGISNYLNWYQQKPDGTVKLLIYYTSSLHSGVPSRFSGSGSGTDYSLTISNLEQEDIATYYCQQYSKLPWTFGGGTKLEIKRAAALEHHHHHH
notes: as for B2
For B3, the binding result in experiment [2] was “no binding”; in experiment [3], “binds”. Besides, the “fold affinity improvement over parental mscFv95” value (from here on “fold affinity improvement”) with human P2X4 peptide [5] was over 10 fold. For the same molecule, the Kd with human P2X4 peptide [4] came to 4.7 nM.

B4: humanized hP2X4R scFv HC3-LC3 (scFv)
scFv: MAEVQLVESGGGLVQPGGSLRLSCATSGFTFTDYYMHWVRQAPGKGLEWVGFIRNKANGYTTEYSASVKGRFTISRDNSKNTLYLQMNSLRAEDTAVYYCARWEGDLLYAMDYWGQGTLVTVSSGGGGSGGGGSGGGGSDIQMTQSPSSLSASVGDRVTITCRASQGISNYLNWYQQKPGKAPKLLIYYTSSLHSGVPSRFSGSGSGTDFTLTISSLQPEDFAYYYCQQYSKLPWTFGGGTKVEIKRAAALEHHHHHH
notes: HC-(G4S)3-LC with C-terminal His tag; also called hP2X4R HC3-LC3 scFv; HC3 LC3 hP2X4R scFv
B4: the binding result in experiment [2] is recorded as “no binding”. In addition, the binding result in experiment [3] is “binds”. In the experiment with human P2X4 peptide [5], the “fold affinity enhancement over parental mscFv95” value is over 50 fold and the “fold affinity improvement” value was over 10 fold. Further, in the experiment with human P2X4 peptide [4], the Kd turned out to be 2.3 nM.

B5: humanized P2X4R scFv HC2-LC3 (scFv)
scFv: MAQVQLQESGPGLVKPSQTLSLTCTTSGFTFTDYYMSWVRQAPGKGLEWIGFIRNKANGYTTEYSASVKGRFTISRDNSKNQFSLRLSSVTAADTAVYYCARWEGDLLYAMDYWGQGTTVTVSSGGGGSGGGGSGGGGSDIQMTQSPSSLSASVGDRVTITCRASQGISNYLNWYQQKPGKAPKLLIYYTSSLHSGVPSRFSGSGSGTDFTLTISSLQPEDFAYYYCQQYSKLPWTFGGGTKVEIKRAAALEHHHHHH
notes: HC-(G4S)3-LC with C-terminal His tag
For the molecule B5, the binding result in experiment [2] is “no binding”; in experiment [3] it was “binds”. In the experiment with human P2X4 peptide [4], the Kd was 29 nM.

B6: P2X4-scFv12 (scFv)
scFv: MADVKLQESGPGLVKPSQSLSLTCSVTGYSITSGYYWNWIRQFPGNKLEWMGYISYDGSNNYNPSLKNRISITRDTSKNQFFLKLNSVTTEDTATYYCARSDYDLYYYAMDYWGQGTSVTVSSAKTTPPSGGGGSGGGGSGGGGGSGGGGSDIVMTQSPATLSVTPGDRVSLSCRASQSISDYLHWYQQKSHESPRLLIKYASQSISGIPSRFSGSGSGSDFTLSINSVEPEDVGVYYCQNGHSFPLTFGSGTKLEIKRADAAALEHHHHHH
Regarding B6, the Kd in experiment [1] stood at 177 nM.

B7: P2X4-scFv95 (parental murine anti-P2X4R scFv) (scFv)
scFv: MAEVKLVESGGGLVQPGGSLRLSCATSGFTFTDYYMSWVRQPPGKALEWLGFIRNKANGYTTEYSASVKGRFTISRDNSQSILYLQMNTLRAEDSATYYCARWEGDLLYAMDYWGQGTSVTVSSGGGGSGGGGSGGGGGSGGGGSDIQMTQTTSSLSASLGDRVTISCSASQGISNYLNWYQQKPDGTVKLLIYYTSSLHSGVPSRFSGSGSGTDYSLTISNLEPEDIATYYCQQYSKLPWTFGGGTKLEIKRADAAALEHHHHHH
notes: also called mscFv95; clone 95
As to B7, the binding result in experiment [2] was “no binding”. Also, the Kd was 130 to 190 nM in experiment [6], 130 nM in experiment [1] and 130 nM with human P2X4 peptide [4].

B8: humanized P2X4R scFv HC2-LC1 (scFv)
scFv: MAQVQLQESGPGLVKPSQTLSLTCTTSGFTFTDYYMSWVRQAPGKGLEWIGFIRNKANGYTTEYSASVKGRFTISRDNSKNQFSLRLSSVTAADTAVYYCARWEGDLLYAMDYWGQGTTVTVSSGGGGSGGGGSGGGGSDIQMTQTTSSLSASLGDRVTISCSASQGISNYLNWYQQKPDGTVKLLIYYTSSLHSGVPSRFSGSGSGTDYSLTISNLEQEDIATYYCQQYSKLPWTFGGGTKLEIKRAAALEHHHHHH
notes: as for B2
As to B8, the binding result in experiment [2] is given as “no binding”; in experiment [3], “binds”. In addition, the “fold affinity improvement” value in the experiment with human P2X4 peptide [5] is over 10 fold. This molecule yielded a Kd with human P2X4 peptide [4] of 12 nM.
